Reference: patent US20170183380A1 (published 2017)
Where no end group is shown, it is not given here.

What was measured:
[1] = molecular target: HER2 on TUBO cells (mice cell line), HER2-overexpressing (UniProt P06494 23-1257); test: cell-based or functional assay
[2] = molecular target: HER2 on HER2-overexpressing breast cancer cells (SK-Br-3: human cell line) (human, UniProt P04626 23-1255); test: cell-based or functional assay

Chain of HER2 on TUBO cells (mice cell line), HER2-overexpressing (P06494 23-1257): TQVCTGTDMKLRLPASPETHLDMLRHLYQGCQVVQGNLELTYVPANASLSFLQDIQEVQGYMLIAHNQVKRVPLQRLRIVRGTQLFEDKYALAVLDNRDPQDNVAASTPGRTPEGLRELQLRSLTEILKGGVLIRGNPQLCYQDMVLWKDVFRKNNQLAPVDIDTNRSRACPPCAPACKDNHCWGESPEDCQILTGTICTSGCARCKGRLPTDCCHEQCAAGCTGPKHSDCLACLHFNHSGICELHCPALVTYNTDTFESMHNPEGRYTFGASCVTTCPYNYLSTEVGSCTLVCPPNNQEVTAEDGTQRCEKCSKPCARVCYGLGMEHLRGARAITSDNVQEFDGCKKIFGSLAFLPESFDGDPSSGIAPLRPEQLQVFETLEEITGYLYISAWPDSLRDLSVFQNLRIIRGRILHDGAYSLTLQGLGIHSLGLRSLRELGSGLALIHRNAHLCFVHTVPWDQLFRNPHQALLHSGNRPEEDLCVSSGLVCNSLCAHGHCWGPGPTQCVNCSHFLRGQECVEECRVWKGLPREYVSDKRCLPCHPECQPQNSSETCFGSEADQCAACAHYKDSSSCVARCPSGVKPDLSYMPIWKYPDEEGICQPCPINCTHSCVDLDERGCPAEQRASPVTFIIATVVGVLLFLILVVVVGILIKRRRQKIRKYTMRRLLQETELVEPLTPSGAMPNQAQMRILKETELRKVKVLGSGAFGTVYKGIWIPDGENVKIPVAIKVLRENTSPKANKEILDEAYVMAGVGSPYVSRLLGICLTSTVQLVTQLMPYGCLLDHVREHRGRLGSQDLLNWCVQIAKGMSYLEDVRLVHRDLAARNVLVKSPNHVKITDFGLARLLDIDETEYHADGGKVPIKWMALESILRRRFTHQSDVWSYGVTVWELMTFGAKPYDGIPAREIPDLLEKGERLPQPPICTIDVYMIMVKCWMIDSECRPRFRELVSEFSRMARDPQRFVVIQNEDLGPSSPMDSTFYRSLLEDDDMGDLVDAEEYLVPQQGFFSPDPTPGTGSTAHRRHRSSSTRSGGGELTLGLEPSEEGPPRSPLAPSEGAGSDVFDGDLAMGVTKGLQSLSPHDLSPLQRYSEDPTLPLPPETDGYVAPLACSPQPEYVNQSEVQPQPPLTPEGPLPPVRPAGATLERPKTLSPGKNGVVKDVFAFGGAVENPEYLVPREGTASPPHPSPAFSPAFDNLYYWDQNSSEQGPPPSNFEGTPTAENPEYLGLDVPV

| Binder | IC50 (cytotoxicity, MTT assay), TUBO cells, 3 hours [1] | IC50 (cytotoxicity, MTT assay), TUBO cells, 6 hours [1] | IC50 (cytotoxicity, MTT assay), SKBR3 cells, 3 hours [2] | IC50 (cytotoxicity, MTT assay), SKBR3 cells, 6 hours [2] |
| --- | --- | --- | --- | --- |
| C(Maleimide‑PEG2000‑DSPE)GGGLTVSPWY (not fully specified; also: order of spacer and peptide assumed) [LTVSPWY (SEQ ID NO: 1) peptide-liposome, post inserted liposome 200 Ligand] | 6.5 µM | 2.5 µM | 15.2 µM | 4.9 µM |
| C(Maleimide‑PEG2000‑DSPE)GGGLTVSPWY (not fully specified; also: order of spacer and peptide assumed) [LTVSPWY (SEQ ID NO: 1) peptide-liposome, post inserted liposome 100 Ligand] | 8.08 µM | 3.9 µM | 17.9 µM | 6.07 µM |
| C(Maleimide‑PEG2000‑DSPE)GGGLTVSPWY (not fully specified; also: order of spacer and peptide assumed) [LTVSPWY (SEQ ID NO: 1) peptide-liposome, post inserted liposome 25 Ligand] | 11.1 µM | 5.5 µM | 24.9 µM | 12.8 µM |
| C(Maleimide‑PEG2000‑DSPE)GGGLTVSPWY (not fully specified; also: order of spacer and peptide assumed) [LTVSPWY (SEQ ID NO: 1) peptide-liposome, post inserted liposome 50 Ligand] | 9.7 µM | 4.6 µM | 21.5 µM | 10.4 µM |
